Source: paper PMC11297322, “MEILB2-BRME1 forms a V-shaped DNA clamp upon BRCA2-binding in meiotic recombination” (Nature Communications, 2023)

B1: MEILB2α (mouse MEILB2 amino-acids 22–81) (domain or fragment, UniProt Q9D4G2 22-81, looked up)
chain: EEFVKVRKKDLERLTTEVMQIRDFLPRILNGELLESFQKLKMVEKNLERKEQELEQLIMD
notes: MEILB2 (meiotic localiser of BRCA2; HSF2BP), mouse, residues 22-81: the α1 helix and the beginning of the α2 helix; Two copies stand in the 2:2 core complex with BRME1; also called HSF2BP; source: E. coli BL21 (DE3), purified with BRME1 (Ni-NTA, amylose, ion exchange, TEV cleavage, SEC); not shown: His6-MBP (pMAT11) or MBP (pRSF-Duet1), N-terminal, cleaved
B6: MBP-MEILB2 (mouse MEILB2 22–338 with N-terminal MBP-tag) (domain or fragment, UniProt Q9D4G2 22-338, looked up)
chain: EEFVKVRKKDLERLTTEVMQIRDFLPRILNGELLESFQKLKMVEKNLERKEQELEQLIMDREHFKARLETAQADSGREKKEKLALRQQLNEAKQQLLQQAEYCTQMGAVTCTLLWGVSSSEEVVKTILGGDKALKFFNITGQTMESFVKSLDGDVKEVDSDENQFVFALAGIVTNVAAIACGREFLVNSSRVLLDTMLQLLGDLKPGQCTKLKVLMLMSLYNVSINSKGLKYITESPGFIPLLWWLLSDPDAEVCLHTLRLIQSVVLEPDVFSKVASELQSSLPLQRILAMSKSRNSHLQSAAQELLEDLRALDCNV
notes: MEILB2 (HSF2BP), mouse, residues 22-338; also called MEILB2 with N-terminal MBP-tag; source: E. coli BL21 (DE3), purified in complex; not shown: MBP, N-terminal, kept
B7: MEILB2 (mouse MEILB2 amino-acids 22–338, the full structured region) (domain or fragment, UniProt Q9D4G2 22-338, looked up)
chain: EEFVKVRKKDLERLTTEVMQIRDFLPRILNGELLESFQKLKMVEKNLERKEQELEQLIMDREHFKARLETAQADSGREKKEKLALRQQLNEAKQQLLQQAEYCTQMGAVTCTLLWGVSSSEEVVKTILGGDKALKFFNITGQTMESFVKSLDGDVKEVDSDENQFVFALAGIVTNVAAIACGREFLVNSSRVLLDTMLQLLGDLKPGQCTKLKVLMLMSLYNVSINSKGLKYITESPGFIPLLWWLLSDPDAEVCLHTLRLIQSVVLEPDVFSKVASELQSSLPLQRILAMSKSRNSHLQSAAQELLEDLRALDCNV
notes: MEILB2 (HSF2BP), mouse, residues 22-338: α-helical region (α1, α2) and C-terminal ARM domain; the N-terminal 21 residues removed; also called HSF2BP; source: E. coli BL21 (DE3), purified in complex (Ni-NTA, amylose, ion exchange, TEV cleavage, SEC); not shown: His6-MBP (pMAT11) or MBP (pRSF-Duet1), N-terminal, cleaved
B8: MEILB2 K26E (mouse MEILB2 22–338) (domain or fragment, UniProt Q9D4G2 22-338, looked up)
chain: EEFVEVRKKDLERLTTEVMQIRDFLPRILNGELLESFQKLKMVEKNLERKEQELEQLIMDREHFKARLETAQADSGREKKEKLALRQQLNEAKQQLLQQAEYCTQMGAVTCTLLWGVSSSEEVVKTILGGDKALKFFNITGQTMESFVKSLDGDVKEVDSDENQFVFALAGIVTNVAAIACGREFLVNSSRVLLDTMLQLLGDLKPGQCTKLKVLMLMSLYNVSINSKGLKYITESPGFIPLLWWLLSDPDAEVCLHTLRLIQSVVLEPDVFSKVASELQSSLPLQRILAMSKSRNSHLQSAAQELLEDLRALDCNV
notes: MEILB2 (HSF2BP), mouse, residues 22-338 with K26E; source: E. coli BL21 (DE3), purified in complex (Ni-NTA, amylose, ion exchange, TEV cleavage, SEC); not shown: His6-MBP (pMAT11) or MBP (pRSF-Duet1), N-terminal, cleaved

Legend:
[1] = target: the molecule itself; assay: crystal structure; MEILB2α–BRME1MBD (22–81; 540–574) 2:2 core complex; crystals grown on ice in 20 mM HEPES pH 7.5, 150 mM KCl; 1.50 Å; one 2:2 complex in the asymmetric unit
[2] = target: B1; assay: as above; details: both partners purified
[3] = target: B7; assay: SEC-MALS; BRCA2MBD–MEILB2–BRME1MBD ternary complex at >5 mg/ml, Superdex 200 Increase 10/300 GL, 20 mM HEPES pH 7.5, 500 mM KCl, 2 mM DTT; details: both partners purified
[4] = target: B7; assay: not stated; BRCA2MBD–MEILB2 in the absence of BRME1MBD, in solution; data in Supplementary Fig. 14; details: both partners purified
[5] = target: B8; assay: not stated; BRCA2MBD–MEILB2–BRME1MBD complex with MEILB2 K26E; data in Supplementary Figs. 2 and 12c; details: both partners purified
[6] = target: B6; assay: SEC-MALS; BRCA2MBD–MEILB2–BRME1MBD ternary complex at >5 mg/ml, Superdex 200 Increase 10/300 GL, 20 mM HEPES pH 7.5, 500 mM KCl, 2 mM DTT; details: both partners purified
[7] = target: B7; assay: SEC-MALS; MEILB2–BRME1MBD complex at >5 mg/ml, Superdex 200 Increase 10/300 GL, 20 mM HEPES pH 7.5, 150 mM KCl, 2 mM DTT; details: both partners purified
[8] = target: the molecule itself; assay: SEC-MALS; BRCA2MBD–MEILB2–BRME1MBD ternary complex at >5 mg/ml, Superdex 200 Increase 10/300 GL, 20 mM HEPES pH 7.5, 500 mM KCl, 2 mM DTT
[9] = target: the molecule itself; assay: SEC-MALS; MEILB2–BRME1MBD complex at >5 mg/ml, Superdex 200 Increase 10/300 GL, 20 mM HEPES pH 7.5, 150 mM KCl, 2 mM DTT
[10] = target: the molecule itself; assay: not stated; BRCA2MBD–MEILB2 in the absence of BRME1MBD, in solution; data in Supplementary Fig. 14
[11] = target: the molecule itself; assay: not stated; BRCA2MBD–MEILB2–BRME1MBD complex with MEILB2 K26E; data in Supplementary Figs. 2 and 12c

Binder: B1
- binding result [1]: binds

B2: BRME1MBD ΔRKTK (mouse BRME1 amino-acids 540–574) (domain or fragment, UniProt Q6DIA7 540-574, looked up)
chain: RMQDATDTVRGLVVELSGLNRLIMSTHRDLEAFKR
notes: BRME1 (BRCA2 and MEILB2-associating protein 1); The crystallography methods give 540–574 for the crystallised BRME1 chain, the results give 540–578; also called BRME1 540–574; BRME1MBD (in the crystallography methods); source: E. coli BL21 (DE3), purified with MEILB2 (Ni-NTA, amylose, ion exchange, TEV cleavage, SEC); not shown: His6, N-terminal, cleaved
- binding result [2]: binds

B3: BRCA2MBD (mouse BRCA2 amino-acids 2232–2283, MEILB2-binding domain) (domain or fragment, UniProt P97929 2232-2283, looked up)
chain: PIKRSLLNEFDRIIESKGKSLTPSKSTPDGTVKDRSLFTHHMSLEPVTCGPF
notes: source: E. coli BL21 (DE3), purified in complex with MEILB2 (Ni-NTA, amylose, ion exchange, TEV cleavage, SEC); not shown: His6-MBP (pMAT11) or MBP (pRSF-Duet1), N-terminal, cleaved
- stoichiometry N [3]: 0.5 BRCA2MBD per MEILB2 (2:4 in the 2:4:4 complex)
- stoichiometry N [4]: 0.5 BRCA2MBD per MEILB2 (4:8)
- stoichiometry N [5]: 0.5 BRCA2MBD per MEILB2 (2:4 in the 2:4:4 complex)

B4: MBP-BRCA2MBD (mouse BRCA2 2232–2283 with N-terminal MBP-tag) (domain or fragment, UniProt P97929 2232-2283, looked up)
chain: PIKRSLLNEFDRIIESKGKSLTPSKSTPDGTVKDRSLFTHHMSLEPVTCGPF
notes: also called BRCA2MBD with N-terminal MBP-tag; source: E. coli BL21 (DE3), purified in complex; not shown: MBP, N-terminal, kept
- stoichiometry N [6]: 0.5 BRCA2MBD per MEILB2 (2:4 in the 2:4:4 complex)

B5: BRME1MBD (mouse BRME1 amino-acids 540–578) (domain or fragment, UniProt Q6DIA7 540-578, looked up)
chain: RMQDATDTVRGLVVELSGLNRLIMSTHRDLEAFKRRKTK
notes: source: E. coli BL21 (DE3), purified in complex with MEILB2 (Ni-NTA, amylose, ion exchange, TEV cleavage, SEC); not shown: His6, N-terminal, cleaved
- stoichiometry N [3]: 1 BRME1MBD per MEILB2 (4:4 in the 2:4:4 complex)
- stoichiometry N [6]: 1 BRME1MBD per MEILB2 (4:4 in the 2:4:4 complex)
- stoichiometry N [7]: 1 BRME1MBD per MEILB2 (2:2)
- stoichiometry N [5]: 1 BRME1MBD per MEILB2 (4:4 in the 2:4:4 complex)

Binder: B6
- stoichiometry N [8]: 4 MEILB2 chains in the 2:4:4 complex (with BRCA2MBD)

Binder: B7
- stoichiometry N [8]: 4 MEILB2 chains in the 2:4:4 complex (with BRCA2MBD)
- stoichiometry N [9]: 2 MEILB2 chains in the 2:2 complex
- stoichiometry N [10]: 8 MEILB2 chains in the 4:8 oligomer (with BRCA2MBD)

Binder: B8
- stoichiometry N [11]: 4 MEILB2 chains in the 2:4:4 complex (with BRCA2MBD)
